The text below walks through data of paper PMC8891041.

In the test the target is human parathyroid hormone type 1 receptor (hPTHR) (human) (UniProt Q03431). Kind of test: radioligand binding.
Chain of UniProt Q03431 (Q03431 27-593): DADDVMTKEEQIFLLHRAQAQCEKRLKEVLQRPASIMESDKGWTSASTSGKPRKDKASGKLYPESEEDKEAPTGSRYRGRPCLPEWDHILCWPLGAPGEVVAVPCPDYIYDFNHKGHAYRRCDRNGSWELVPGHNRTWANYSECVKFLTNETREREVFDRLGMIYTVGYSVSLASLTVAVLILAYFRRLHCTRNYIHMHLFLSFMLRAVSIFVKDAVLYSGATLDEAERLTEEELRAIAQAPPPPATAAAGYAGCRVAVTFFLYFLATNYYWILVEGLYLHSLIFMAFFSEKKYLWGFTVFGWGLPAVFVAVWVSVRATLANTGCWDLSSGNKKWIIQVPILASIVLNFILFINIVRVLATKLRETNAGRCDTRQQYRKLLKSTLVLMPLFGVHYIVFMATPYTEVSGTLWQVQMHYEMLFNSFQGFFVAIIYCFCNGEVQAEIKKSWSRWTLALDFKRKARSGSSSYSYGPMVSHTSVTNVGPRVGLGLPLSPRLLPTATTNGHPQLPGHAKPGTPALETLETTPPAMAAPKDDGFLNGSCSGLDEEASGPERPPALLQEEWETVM

One may read the pKi as the negative decadic logarithm of the Ki, by convention in mol/L. Read a high pKi as a low Ki. PTH(1-34) (peptide) had a pKi of 8.26. As for M-PTH(1-15) (peptide), the figure is 10.8.
